B1: TPX2 1-43: Aurora-A activating domain of TPX2 (aa 1–43) (protein)
chain: MSQVKSSYSYDAPSDFINFSSLDDEGDTQNIDSWFEEKANLENKLLGKNGTGGLFQGKTPLRKANLQQAIVTPLKPVDNTYYKEAEKENLVEQSIPSNACSSLEVEAAISRKTPAQPQRRSLRLSAQKDLEQKEKHHVKMKAKRCATPVIIDEILPSKKMKVSNNKKKPEEEGSAHQDTAEKNASSPEKAKGRHTVPCMPPAKQKFLKSTEEQELEKSMKMQQEVVEMRKKNEEFKKLALAGIGQPVKKSVSQVTKSVDFHFRTDERIKQHPKNQEEYKEVNFTSELRKHPSSPARVTKGCTIVKPFNLSQGKKRTFDETVSTYVPLAQQVEDFHKRTPNRYHLRSKKDDINLLPSKSSVTKICRDPQTPVLQTKHRARAVTCKSTAELEAEELEKLQQYKFKARELDPRILEGGPILPKKPPVKPPTEPIGFDLEIEKRIQERESKKKTEDEHFEFHSRPCPTKILEDVVGVPEKKVLPITVPKSPAFALKNRIRMPTKEDEEEDEPVVIKAQPVPHYGVPFKPQIPEARTVEICPFSFDSRDKERQLQKEKKIKELQKGEVPKFKALPLPHFDTINLPEKKVKNVTQIEPFCLETDRRGALKAQTWKHQLEEELRQQKEAACFKARPNTVISQEPFVPKKEKKSVAEGLSGSLVQEPFQLATEKRAKERQELEKRMAEVEAQKAQQLEEARLQEEEQKKEELARLRRELVHKANPIRKYQGLEIKSSDQPLTVPVSPKFSTRFHC
B2: Aurora-A^CAKD (Aurora-A kinase domain, aa 122–403 C290A, C393A), unphosphorylated (domain or fragment, human, UniProt O14965 122-403, looked up)
chain: ESKKRQWALEDFEIGRPLGKGKFGNVYLAREKQSKFILALKVLFKAQLEKAGVEHQLRREVEIQSHLRHPNILRLYGYFHDATRVYLILEYAPLGTVYRELQKLSKFDEQRTATYITELANALSYCHSKRVIHRDIKPENLLLGSAGELKIADFGWSVHAPSSRRTTLAGTLDYLPPEMIEGRMHDEKVDLWSLGVLCYEFLVGKPPFEANTYQETYKRISRVEFTFPDFVTEGARDLISRLLKHNPSQRPMLREVLEHPWITANSSKPSNAQNKESASKQS
notes: Aurora-A kinase domain, human, residues 122-403, variant lacking surface cysteines; also called Aurora-A 122–403 C290A C393A; unphosphorylated Aurora-A^CAKD; source: E. coli RIL, co-expressed with lambda phosphatase, purified (HisTrap, TEV cleavage, SEC); not shown: His6, N-terminal, cleaved
B3: human CEP192 468–533 Y487A/F490A (domain or fragment, UniProt Q8TEP8 468-533, looked up)
chain: PQSVVYQNEEGRWVTDLAYATSANSKQNLNVSLSDEMNEDFRSGSEAFDLIAQDEEEFNKEHQFIQ
notes: source: E. coli B834 RIL, purified (HisTrap, TEV cleavage, SEC); not shown: His6, N-terminal, cleaved; SUMO, N-terminal, cleaved

For series [1], the target named is Aurora-A (Homo sapiens) (UniProt O14965). Briefly: fluorescence polarisation. As to conditions: cited from earlier work.
Series [2] addresses T1, phosphorylated Aurora-A CAKD (Homo sapiens, UniProt O14965, C290A/C393A).
T1 construct: 10 nM Aurora-A 122–403 C290A C393A phosphorylated protein; His (N, cleaved yes); made in house; host or cells: E. coli B834 (no lambda phosphatase)
T1 sequence (O14965 122-403 C290A/C393A): B2 chain
Put plainly: ADP-Glo kinase assay, kemptide substrate. The series is classed as biochemical. The protocol: Reactions were initiated by the addition of 10 μM ATP and 100 μM kemptide as substrate (Cambridge Bioscience Ltd). The reactions were incubated at room temperature for 60 min before 5 μl was transferred into 5 ul of ADP-Glo Reagent (Promega) in a 384-well low volume low binding plate (Greiner Bio-one). After a further 40 min at room temperature, 10 μl of kinase detection reagent was added to each well, and the reaction was allowed to incubate for an additional 30 min. Luminescence was measured on a HIDEX Sense plate reader (HIDEX) using a 1 s integration time. Control data was subtracted from the luminescence and three repeats were averaged before being fitted to a sigmoidal plot using Origin (OriginLab), where IC50 and EC50 values were calculated.

Series [3] has as its target T2, unphosphorylated Aurora-A CAKD (Homo sapiens, UniProt O14965, C290A/C393A).
T2 construct: 10 μM Aurora-A kinase domain (phosphorylated or unphosphorylated C290A C393A 122–403); His (N, cleaved yes); made in house; host or cells: E. coli RIL, co-expressed with lambda phosphatase
T2 sequence (O14965 122-403 C290A/C393A): B2 chain
Put plainly: Fluorescence anisotropy competition with FAM-TPX2 7-43. The note with it: in words, Aurora-A CAKD. The series is classed as binding. The protocol:
(§1) Assays were performed in 25 mM HEPES pH 7.5, 150 mM NaCl, 2 mM DTT, 5 mM MgCl2, 0.01% Tween 20. For CEP192 and TPX2 competition assays 10 μM Aurora-A kinase domain (phosphorylated or unphosphorylated C290A C393A 122–403) was preincubated on ice with 100 nM FAM-TPX2 7-43 or 100 nM FAM-CEP192 501–533. For TACC3 competition, due to weaker binding, 25 μM Aurora-A kinase domain (phosphorylated or unphosphorylated C290A C393A 122–403) was preincubated with 100 nM FAM-TACC3 522-536. Serial dilutions of competitor (CEP192) were performed in triplicate into a low volume 384-well black plate, before the premixed Aurora-A and tracer were added. A control row included no tracer. Plates were left incubating for 1 h at room temperature before the fluorescence anisotropy was measured using a HIDEX plate reader, with excitation at 485 nm and emission at 535 nm. For direct binding experiments, the assay was performed as above, but the Aurora-A (122–403 C290A C393A or point mutants) was diluted across the plate from high to low concentration, before the addition of 50 nM tracer (FAM-CEP192 501–533) to three replicate rows. Buffer only was added to the control row.
(§2) Fluorescence anisotropy data were processed using Microsoft Excel to calculate intensity and anisotropy using the equation listed in (Yeo et al, [2013]). The IC50 and Kd values were calculated using Origin (OriginLab) where the data fitted to a sigmoid and are summarised in Appendix Table S3.
For orientation: Polarisation of emitted light reports the rotation of a fluorescent probe.

Series [4] concerns the target T3, Aurora-A CAKD (Homo sapiens, UniProt O14965, C290A/C393A).
T3 construct: 25 μM Aurora-A kinase domain (phosphorylated or unphosphorylated C290A C393A 122–403); His (N, cleaved yes); made in house; host or cells: E. coli
T3 sequence (O14965 122-403 C290A/C393A): B2 chain
Briefly: Fluorescence anisotropy competition with FAM-TACC3 522-536. As to conditions: in words. The series is classed as binding. As for the experimental part: as §1, with “For direct binding experiments, the assay was performed as above, but the Aurora-A (122–403 C290A C393A or point mutants) was diluted across the plate from high to low concentration, before the addition of 50 nM tracer (FAM-CEP192 501–533) to three replicate rows. Buffer only was added to the control row.” left out
as §2

Series [5] relates to PLK1-pT210 in RPE1 p53-/- cells. Briefly: Western blot densitometry, PLK1-pT210, RPE1 p53-/-. Type of series: cell-based, Homo sapiens. As to conditions: mitotic RPE1 p53-/- lysates, inhibitor 30 min. The protocol:
(§3) For measuring monopolar spindle diameter and counting centriolar foci by immunofluorescence, cells were treated with 10 µM STLC for 1 h and 4 h prior to fixation, respectively.
(§4) Drugs were resuspended in DMSO to the stock concentrations indicated in square brackets.
(§5) Cells were lysed on ice for 30 min in lysis buffer (50 mM tris pH 8.0, 300 mM NaCl, 0.2%(v/v) NP-40, 10%(v/v) glycerol, protease inhibitor cocktail C, phosphatase inhibitor cocktail 3 (Sigma, 1:200 dilution), 100 nM okadaic acid (Enzo, ALX-350-003-C100)). Lysates were then centrifuged at 14,000 × g, 15 min, 4 °C, the supernatants were transferred to a fresh tube, and the pellet was discarded. Protein concentrations were measured by Bradford assay using Protein Assay Dye Reagent Concentrate (Bio-Rad Laboratories, 5000006). NuPage LDS sample buffer, supplemented with NuPAGE sample reducing agent (Invitrogen) were added prior to boiling for 10 min at 90 °C. […] Nitrocellulose was then blocked in 5% milk (wt/v) in TBS, 0.1% Tween (v/v) (TBST) for 1 h. Primary and secondary antibodies were diluted in 5% milk, TBST and incubated overnight at 4 °C or for 1 h at room temperature, respectively. […]
(§6) Densitometric quantification of western blots was also performed in ImageJ. Intensity was measured in a rectangular region of interest (ROI) around each band. […] An adjacent region was also measured to account for background intensity.

Series [6] relates to TCTP-pS46 in RPE1 p53-/- cells. Put plainly: Western blot densitometry, TCTP-pS46, RPE1 p53-/-. As to conditions: mitotic RPE1 p53-/- lysates, inhibitor 30 min. The series is classed as cell-based, Homo sapiens. The protocol: as §3, §4, §5, §6
A general note: A western blot detects proteins with antibodies after separation by electrophoresis.

Series [7] concerns the target Aurora-A. The note with it: from ITC; ref (Burgess et al, [2015]; McIntyre et al, [2017]; Zorba et al, [2014]); cited from earlier work. The protocol:
This is a higher affinity than observed in a previous study that used CEP192 proteins fused to MBP, a large protein tag that might have affected the interaction (Park et al, [2023]). For context, the affinity of Aurora-A for its other key mitotic partners are: TPX2_1-43 (Kd 0.3–2 μM from ITC) and TACC ...

The target of series [8] is B3. Put plainly: ITC; 250 μM Aurora-A in the syringe, 25 μM CEP192 construct in the cell; 25 °C; 20 mM tris pH 7.5, 200 mM NaCl, 10% glycerol, 5 mM MgCl2. The note with it: both partners purified. For orientation: Isothermal titration calorimetry measures the heat released or taken up as one component is titrated into another.
Series [9] concerns the target T4, human CEP192 468–533 (human, UniProt Q8TEP8 468-533).
T4 construct: also called CEP192_(506-527_F); source: E. coli B834 RIL, purified (HisTrap, TEV cleavage, SEC); for crystallisation co-expressed with Aurora-A^M7KD and co-purified; not shown: His6, N-terminal, cleaved; SUMO, N-terminal, cleaved
T4 sequence (looked up): B3 chain with A20Y, A23F
Described as above. The note with it: both partners purified.

For series [10], the target named is B2. The series is described as above. The note with it: both partners purified.
The target in series [11] is T5, Aurora-A^CAKD (Aurora-A kinase domain, aa 122–403 C290A, C393A), unphosphorylated (human, UniProt O14965 122-403, C290A | C393A).
T5 sequence: B2 chain
Briefly: FP; competition with FAM-TPX2 7-43.

Where a chain is given by its changes, count along the chain named. Names and notes keep the numbering of the source. Like-named read-outs stand apart in the source and are kept apart here.

Sequence of Aurora-A (Homo sapiens) (O14965 whole entry): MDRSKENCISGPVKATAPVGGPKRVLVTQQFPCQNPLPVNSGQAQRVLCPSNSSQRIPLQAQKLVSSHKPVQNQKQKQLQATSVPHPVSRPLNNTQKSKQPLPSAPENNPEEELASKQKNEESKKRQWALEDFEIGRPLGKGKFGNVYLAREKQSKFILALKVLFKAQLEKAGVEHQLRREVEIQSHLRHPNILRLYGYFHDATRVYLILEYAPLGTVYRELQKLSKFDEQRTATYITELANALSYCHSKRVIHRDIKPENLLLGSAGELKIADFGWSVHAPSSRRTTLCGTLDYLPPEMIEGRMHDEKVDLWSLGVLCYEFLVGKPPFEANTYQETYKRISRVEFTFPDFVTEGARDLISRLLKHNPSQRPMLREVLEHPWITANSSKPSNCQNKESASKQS

Turning to TACC3 519-563 (from UniProt Q9Y6A5), in series [1], the dissociation constant Kd (as a rule, the free concentration of one partner at which half of the binding sites on the other are occupied at equilibrium, for simple one-to-one binding) was 6000 nM.
In the case of “IWSPTCERRTCECHESIEKNKDKTDLPQSVVYQNEEGRWVTDLAYYTSFNSKQNLNVSLSDEMNEDFRSGSEAFDLIAQDEEEFNKEHQFIQ [CEP192 442-533, recombinant human CEP192 aa 442–533]”, the “effect on Aurora-A kinase activity” value in series [2] (ADP-Glo, phosphorylated Aurora-A CAKD, kemptide, in words) was “partially inhibited the activity”. Moreover, the “competition for binding with FAM-TPX2 7-43” value in [3] is “competed for binding with FAM-TPX2_7-43”. The “competition for binding with FAM-TACC3 522-536” value in series [4] was “competed for binding with FAM-TACC3_522-536”.
Take `CC[C@@H]1C(=O)N(C)c2cnc(Nc3ccc(C(=O)NC4CCN(C)CC4)cc3OC)nc2N1C1CCCC1` [BI2536]: in series [5], the “T-loop phosphorylation of PLK1 (pT210)” value is recorded as “decreased”. Further, the “phosphorylation of TCTP (pS46)” value in series [6] is on record as “decreased”.
As to B1, the EC50 was 6.8 ± 0.5 nM in [2] (10 nM phosphorylated Aurora-A CAKD, 10 μM ATP, 100 μM kemptide, 60 min, n = 3, read-out: ADP-Glo EC50 (stimulation of Aurora-A activity)) and 1 nM in series [2] (ADP-Glo, 10 nM Aurora-A, first manuscript version, quoted by referee, read-out: concentration of 50 % max activation). Also, the dissociation constant Kd in series [7] was 300 to 2000 nM.
Take B2: the entries for the “stoichiometry N” value in series [8] and in [9] were 0.84 and 0.85, respectively.
Consider B3, for which, in [10], the Kd amounted to 2000 nM. For the same molecule, the IC50 (in general, the concentration needed to halve the response being measured) in series [11] came out at 14100 nM.
